Source: article PMC7335073, “Comprehensive structure-function characterization of DNMT3B and DNMT3A reveals distinctive de novo DNA methylation mechanisms” (Nature Communications, 2020)

Molecular target: the molecule itself
Experiment: crystal structure; covalent DNMT3B–DNMT3L–DNA complexes (25-mer Zebularine DNA: CGA, CGT or CAG) with SAH; proteins co-expressed in E. coli and purified as a complex; hanging-drop vapor diffusion, 0.1 M Tris-HCl pH 8.0, MgCl2, PEG, 0.2 mM AdoHcy, 4 °C or 16 °C

Row | Protein | binding result
1 | MTase domain of human DNMT3B (residues 562–853) (domain or fragment, UniProt Q9UBC3-1 562-853, looked up, catalytic cysteine C651 covalently linked to the Zebularine of the DNA, Two copies stand in the DNMT3L–DNMT3B–DNMT3B–DNMT3L heterotetramer; also called hDNMT3B; WT DNMT3B; source: E. coli BL21 DE3 (RIL), co-expressed with DNMT3L, purified (Ni-NTA, Heparin HP, SEC; after DNA cross-linking HiTrap Q XL, SEC); not shown: His6, N-terminal, cleaved; SUMO, N-terminal, cleaved) KLYPAIPAARRRPIRVLSLFDGIATGYLVLKELGIKVGKYVASEVCEESIAVGTVKHEGNIKYVNDVRNITKKNIEEWGPFDLVIGGSPCNDLSNVNPARKGLYEGTGRLFFEFYHLLNYSRPKEGDDRPFFWMFENVVAMKVGDKRDISRFLECNPVMIDAIKVSAAHRARYFWGNLPGMNRPVIASKNDKLELQDCLEYNRIAKLKKVQTITTKSNSIKQGKNQLFPVVMNGKEDVLWCTELERIFGFPVHYTDVSNMGRGARQKLLGRSWSVPVIRHLFAPLKDYFACE | binds
2 | K777A-mutated MTase domain of human DNMT3B (residues 562–853) (domain or fragment, UniProt Q9UBC3-1 562-853, looked up, catalytic cysteine C651 covalently linked to the Zebularine of the DNA, also called K777A DNMT3B; source: E. coli BL21 DE3 (RIL), co-expressed with DNMT3L, purified (Ni-NTA, Heparin HP, SEC; after DNA cross-linking HiTrap Q XL, SEC); not shown: His6, N-terminal, cleaved; SUMO, N-terminal, cleaved) KLYPAIPAARRRPIRVLSLFDGIATGYLVLKELGIKVGKYVASEVCEESIAVGTVKHEGNIKYVNDVRNITKKNIEEWGPFDLVIGGSPCNDLSNVNPARKGLYEGTGRLFFEFYHLLNYSRPKEGDDRPFFWMFENVVAMKVGDKRDISRFLECNPVMIDAIKVSAAHRARYFWGNLPGMNRPVIASKNDKLELQDCLEYNRIAKLKKVQTITTASNSIKQGKNQLFPVVMNGKEDVLWCTELERIFGFPVHYTDVSNMGRGARQKLLGRSWSVPVIRHLFAPLKDYFACE | binds
